Each block holds one binder with its values, some of them ahead of it.
Assays:
Settings in all cases: one partner purified
[1] = biological target: T1, chimpanzee uPAR in tissues (chimpanzee (endogenous in tissues), UniProt Q9GK80); test: immunostaining of cells or tissue; immunohistochemistry of chimpanzee tissues with ATN-658; no figure or methods given
T1 construct: source: endogenous, chimpanzee tissues

[2] = biological target: T2, African green monkey uPAR on COS-1 cells (Chlorocebus aethiops (COS-1 cells), UniProt Q9GK79); test: flow cytometry on cells; cells incubated with ATN-658 (10 µg/mL) 1 h at 4°C in FACS buffer, Alexa Fluor 488 secondary antibody
T2 construct: also called AGM uPAR; source: endogenous, on COS-1 cells
T2 sequence (Q9GK79 whole entry, looked up): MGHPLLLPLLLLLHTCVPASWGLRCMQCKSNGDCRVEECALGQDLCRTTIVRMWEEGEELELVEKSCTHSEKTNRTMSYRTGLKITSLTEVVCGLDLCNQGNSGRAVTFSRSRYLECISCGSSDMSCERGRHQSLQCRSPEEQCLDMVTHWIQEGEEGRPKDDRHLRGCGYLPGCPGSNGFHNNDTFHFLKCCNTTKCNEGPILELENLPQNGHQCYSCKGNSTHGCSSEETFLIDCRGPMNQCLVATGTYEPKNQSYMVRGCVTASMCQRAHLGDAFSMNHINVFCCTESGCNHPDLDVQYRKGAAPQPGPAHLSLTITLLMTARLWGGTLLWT

[3] = biological target: T3, human uPAR on the surface of cells (PC-3, HeLa) (Homo sapiens, UniProt Q03405); test: radioligand binding; iodinated ATN-658 on the surface of HeLa cells
T3 construct: source: endogenous, on PC-3 and HeLa cells
T3 sequence (Q03405 23-305): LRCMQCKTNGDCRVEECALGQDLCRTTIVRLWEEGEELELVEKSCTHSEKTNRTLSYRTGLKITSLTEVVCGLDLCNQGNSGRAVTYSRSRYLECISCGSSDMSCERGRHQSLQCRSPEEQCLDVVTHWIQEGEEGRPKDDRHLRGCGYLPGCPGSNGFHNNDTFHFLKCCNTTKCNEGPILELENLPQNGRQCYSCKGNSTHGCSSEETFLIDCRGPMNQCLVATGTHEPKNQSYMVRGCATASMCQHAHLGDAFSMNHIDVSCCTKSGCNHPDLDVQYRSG

[4] = biological target: T4, African green monkey (AGM) suPAR (Chlorocebus aethiops (COS-1 cells), UniProt Q9GK79); test: ELISA; capture ELISA: suPAR clones from culture supernatant captured by anti-V5 antibody on the plate, biotin-ATN-658, streptavidin-HRP, OPD; saturation binding
T4 construct: soluble uPAR (suPAR) of African green monkey (Cercopithecus aethiops), cloned from COS-1 cells by PCR; numbers count on: the mature protein; Parent of the nine point mutants; also called monkey suPAR; source: Drosophila S2 cells, expressed as described for human suPAR
T4 sequence (Q9GK79 whole entry, looked up): as the sequence (Q9GK79 whole entry, looked up) above

[5] = biological target: T5, mouse uPAR on B16 melanoma cells (Mus musculus (B16 melanoma), UniProt P35456); test: whole cell saturation binding assay; adherent cells on gelatin coated 12-well plates, varying concentrations of biotin-labeled ATN-658 in HBSS/0.1% BSA, 1 h at room temperature, HRP-streptavidin and OPD
T5 construct: source: endogenous, on B16 cells
T5 sequence (P35456 24-298): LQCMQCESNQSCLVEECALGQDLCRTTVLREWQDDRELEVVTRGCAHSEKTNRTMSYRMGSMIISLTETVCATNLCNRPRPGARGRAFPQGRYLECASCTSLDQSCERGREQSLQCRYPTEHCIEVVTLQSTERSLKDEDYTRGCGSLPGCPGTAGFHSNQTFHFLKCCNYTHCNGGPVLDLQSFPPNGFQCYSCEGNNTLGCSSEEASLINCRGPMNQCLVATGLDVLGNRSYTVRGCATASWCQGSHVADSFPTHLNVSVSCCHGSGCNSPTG

[6] = biological target: T2, African green monkey uPAR on COS-1 cells; test: as above

T1 sequence (Q9GK80 23-305): as the sequence (Q03405 23-305) above, with L31M, D102N, S117N counted along it

binding result [1]: binds
binding result [2]: no binding (tested: 10 µg/mL)
B1: ATN-658 monoclonal antibody (antibody, V domains shown)
VH: EVQLQQSGPELVKTGASVKISCKASGYSFTSYYMHWVKQSHGKSLEWIGEINPYNGGASYNQKIKGRATFTVDTSSRTAYMQFNSLTSEDSAVYYCARSIYGHSVLDYWGQGTSVSVSS
VL: not shown
notes: Fab part as the heavy chain of m4, followed by the rest of a mouse IgG1 heavy chain; as the light chain of m4 (kappa); Mouse IgG1 kappa; source: mouse hybridoma tissue culture supernatant, purified (protein-A Sepharose)

Kd [3]: ~5 nM
B2: iodinated ATN-658 (antibody, V domains shown)
VH: B1 VH
VL: not shown
notes: as the heavy chain of m1; as the light chain of m1; Mouse IgG1 kappa; source: mouse hybridoma tissue culture supernatant, purified (protein-A Sepharose), iodinated

binding result [5]: no binding
binding result [6]: no binding
B3: Biotin-ATN-658 (antibody, V domains shown)
VH: B1 VH
VL: not shown
notes: as the heavy chain of m1; as the light chain of m1; Mouse IgG1 kappa
binding result [4]: no binding (tested: 1 µg/mL biotin-ATN-658 (methods))

— PMC3897428 (PLoS ONE, 2014)
